Experimental data reported in article PMC5749176.

B1: Shape-2 (dsDNA)
DNA 1: GGGCGGAGGGTACACCGTGTACTCTTCCCCC
DNA 2: GGGGGAAGAGTACACGGTGTACCCTCCGCCC
B2: Shape-3 (dsDNA)
DNA 1: AAACAAAAAGAACACCGTTTTATTTTGGTGT
DNA 2: ACACCAAAATAAAACGGTGTTCTTTTTGTTT
B3: Shape-4 (dsDNA)
DNA 1: GGGCGTTCGGGACATAATGGCGGGAACCCCC
DNA 2: GGGGGTTCCCGCCATTATGTCCCGAACGCCC
B4: Shape-1 (dsDNA)
DNA 1: GGCCAAAAAGAACACCGTGTACTTTTGGGCT
DNA 2: AGCCCAAAAGTACACGGTGTTCTTTTTGGCC

What was measured:
AR-DBD = AR-DBD (human, UniProt P10275 557-647); assay: EMSA
GR-DBD = GR-DBD (human, UniProt P04150 418-506); assay: EMSA
Sequence of GR-DBD (P04150 418-506): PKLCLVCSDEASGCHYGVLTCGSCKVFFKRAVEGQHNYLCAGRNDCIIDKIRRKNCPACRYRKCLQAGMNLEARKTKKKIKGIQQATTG

Sequence of AR-DBD (P10275 557-647): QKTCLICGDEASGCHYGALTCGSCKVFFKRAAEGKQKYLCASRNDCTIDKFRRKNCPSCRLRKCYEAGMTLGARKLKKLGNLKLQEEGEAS

| Binder | binding result (AR-DBD) | binding result (GR-DBD) |
| --- | --- | --- |
| B1 | binds | – |
| B2 | binds | – |
| B3 | – | binds |
| B4 | binds | – |
